From the Human Domainome abundance scans (Beltran et al. 2025)
± gives the uncertainty stated by the source.

Test: abundance fitness (aPCA) (normalised: wild type 0, dead -1); higher = more abundant; growth selection in yeast, the domain comes from the species named
Settings: Homo sapiens

Question: With “Transcriptional activator Myb I169H, P10242” as the substance, how does the abundance fitness read?
Answer: -0.799 ± 0.22

Question: With “Transcriptional activator Myb I169K, P10242” as the substance, how does the abundance fitness read?
Answer: -1.05 ± 0.15

Question: Which abundance fitness does the source give for “Transcriptional activator Myb I169L, P10242” here?
Answer: -0.427 ± 0.086

Question: Which abundance fitness does the source give for “Transcriptional activator Myb I169M, P10242” here?
Answer: -0.18 ± 0.093

Question: Which abundance fitness does the source give for “Transcriptional activator Myb I169N, P10242” here?
Answer: -0.91 ± 0.14

Question: Which abundance fitness does the source give for “Transcriptional activator Myb I169P, P10242” here?
Answer: -0.734 ± 0.12

Question: With “Transcriptional activator Myb I169Q, P10242” as the substance, how does the abundance fitness read?
Answer: -0.677 ± 0.16

Question: With “Transcriptional activator Myb I169R, P10242” as the substance, how does the abundance fitness read?
Answer: -0.784 ± 0.071

Question: Which abundance fitness does the source give for “Transcriptional activator Myb I169S, P10242” here?
Answer: -0.642 ± 0.076

Question: With “Transcriptional activator Myb I169T, P10242” as the substance, how does the abundance fitness read?
Answer: -0.567 ± 0.11

Question: For “Transcriptional activator Myb I169V, P10242”, which abundance fitness is on record?
Answer: -0.343 ± 0.094

Question: With “Transcriptional activator Myb I169W, P10242” as the substance, how does the abundance fitness read?
Answer: -1.08 ± 0.18

Question: For “Transcriptional activator Myb I169Y, P10242”, which abundance fitness is on record?
Answer: -0.147 ± 0.097

Question: Which abundance fitness does the source give for “Transcriptional activator Myb I181A, P10242” here?
Answer: -0.569 ± 0.084

Question: Which abundance fitness does the source give for “Transcriptional activator Myb I181D, P10242” here?
Answer: -1 ± 0.17

Question: For “Transcriptional activator Myb I181E, P10242”, which abundance fitness is on record?
Answer: -0.64 ± 0.11

Question: Which abundance fitness does the source give for “Transcriptional activator Myb I181F, P10242” here?
Answer: -1.16 ± 0.38

Question: With “Transcriptional activator Myb I181G, P10242” as the substance, how does the abundance fitness read?
Answer: -1.01 ± 0.07

Question: For “Transcriptional activator Myb I181H, P10242”, which abundance fitness is on record?
Answer: -1.17 ± 0.25

Question: With “Transcriptional activator Myb I181K, P10242” as the substance, how does the abundance fitness read?
Answer: -1.34 ± 0.35

Question: For “Transcriptional activator Myb I181L, P10242”, which abundance fitness is on record?
Answer: -0.365 ± 0.094

Question: Which abundance fitness does the source give for “Transcriptional activator Myb I181N, P10242” here?
Answer: -0.658 ± 0.35

Question: For “Transcriptional activator Myb I181P, P10242”, which abundance fitness is on record?
Answer: -0.881 ± 0.25

Question: Which abundance fitness does the source give for “Transcriptional activator Myb I181Q, P10242” here?
Answer: -0.756 ± 0.13

Question: Which abundance fitness does the source give for “Transcriptional activator Myb I181R, P10242” here?
Answer: -0.933 ± 0.081

Question: Which abundance fitness does the source give for “Transcriptional activator Myb I181S, P10242” here?
Answer: -0.694 ± 0.086

Question: Which abundance fitness does the source give for “Transcriptional activator Myb I181T, P10242” here?
Answer: -0.278 ± 0.094

Question: For “Transcriptional activator Myb I181V, P10242”, which abundance fitness is on record?
Answer: -0.036 ± 0.07

Question: Which abundance fitness does the source give for “Transcriptional activator Myb I181W, P10242” here?
Answer: -1.26 ± 0.2

Question: Which abundance fitness does the source give for “Transcriptional activator Myb K143A, P10242” here?
Answer: 0.049 ± 0.15

Question: Which abundance fitness does the source give for “Transcriptional activator Myb K143D, P10242” here?
Answer: -0.192 ± 0.19

Question: For “Transcriptional activator Myb K143E, P10242”, which abundance fitness is on record?
Answer: -0.144 ± 0.17

Question: Which abundance fitness does the source give for “Transcriptional activator Myb K143F, P10242” here?
Answer: -0.235 ± 0.18

Question: Which abundance fitness does the source give for “Transcriptional activator Myb K143G, P10242” here?
Answer: -0.06 ± 0.059

Question: With “Transcriptional activator Myb K143I, P10242” as the substance, how does the abundance fitness read?
Answer: -0.233 ± 0.14

Question: For “Transcriptional activator Myb K143L, P10242”, which abundance fitness is on record?
Answer: -0.221 ± 0.16

Question: For “Transcriptional activator Myb K143M, P10242”, which abundance fitness is on record?
Answer: -0.031 ± 0.16

Question: With “Transcriptional activator Myb K143P, P10242” as the substance, how does the abundance fitness read?
Answer: -0.406 ± 0.49

Question: With “Transcriptional activator Myb K143Q, P10242” as the substance, how does the abundance fitness read?
Answer: -0.961 ± 0.36

Question: With “Transcriptional activator Myb K143R, P10242” as the substance, how does the abundance fitness read?
Answer: -0.228 ± 0.12

Question: Which abundance fitness does the source give for “Transcriptional activator Myb K143S, P10242” here?
Answer: -0.245 ± 0.11

Question: For “Transcriptional activator Myb K143T, P10242”, which abundance fitness is on record?
Answer: -0.118 ± 0.11

Question: With “Transcriptional activator Myb K143V, P10242” as the substance, how does the abundance fitness read?
Answer: -0.13 ± 0.087

Question: For “Transcriptional activator Myb K143W, P10242”, which abundance fitness is on record?
Answer: -0.535 ± 0.076

Question: With “Transcriptional activator Myb K143Y, P10242” as the substance, how does the abundance fitness read?
Answer: -0.201 ± 0.16

Question: For “Transcriptional activator Myb K144A, P10242”, which abundance fitness is on record?
Answer: -0.202 ± 0.099

Question: Which abundance fitness does the source give for “Transcriptional activator Myb K144C, P10242” here?
Answer: -0.095 ± 0.12

Question: Which abundance fitness does the source give for “Transcriptional activator Myb K144D, P10242” here?
Answer: 0.06 ± 0.14

Question: Which abundance fitness does the source give for “Transcriptional activator Myb K144E, P10242” here?
Answer: -0.114 ± 0.14

Question: Which abundance fitness does the source give for “Transcriptional activator Myb K144F, P10242” here?
Answer: -0.285 ± 0.16

Question: Which abundance fitness does the source give for “Transcriptional activator Myb K144G, P10242” here?
Answer: -0.042 ± 0.059

Question: With “Transcriptional activator Myb K144H, P10242” as the substance, how does the abundance fitness read?
Answer: -0.232 ± 0.12

Question: Which abundance fitness does the source give for “Transcriptional activator Myb K144I, P10242” here?
Answer: -0.206 ± 0.22

Question: With “Transcriptional activator Myb K144L, P10242” as the substance, how does the abundance fitness read?
Answer: -0.101 ± 0.084

Question: Which abundance fitness does the source give for “Transcriptional activator Myb K144M, P10242” here?
Answer: 0.028 ± 0.1

Question: Which abundance fitness does the source give for “Transcriptional activator Myb K144N, P10242” here?
Answer: 0.073 ± 0.11

Question: Which abundance fitness does the source give for “Transcriptional activator Myb K144P, P10242” here?
Answer: -0.269 ± 0.11

Question: With “Transcriptional activator Myb K144Q, P10242” as the substance, how does the abundance fitness read?
Answer: -0.015 ± 0.1

Question: For “Transcriptional activator Myb K144R, P10242”, which abundance fitness is on record?
Answer: -0.078 ± 0.072

Question: Which abundance fitness does the source give for “Transcriptional activator Myb K144S, P10242” here?
Answer: 0.067 ± 0.085

Question: For “Transcriptional activator Myb K144T, P10242”, which abundance fitness is on record?
Answer: 0.101 ± 0.086

Question: With “Transcriptional activator Myb K144V, P10242” as the substance, how does the abundance fitness read?
Answer: -0.042 ± 0.085

Question: Which abundance fitness does the source give for “Transcriptional activator Myb K144W, P10242” here?
Answer: -0.201 ± 0.089

Question: With “Transcriptional activator Myb K144Y, P10242” as the substance, how does the abundance fitness read?
Answer: 0.08 ± 0.16

Question: With “Transcriptional activator Myb K171A, P10242” as the substance, how does the abundance fitness read?
Answer: -0.017 ± 0.093

Question: For “Transcriptional activator Myb K171C, P10242”, which abundance fitness is on record?
Answer: -0.238 ± 0.12

Question: Which abundance fitness does the source give for “Transcriptional activator Myb K171D, P10242” here?
Answer: -0.234 ± 0.14

Question: Which abundance fitness does the source give for “Transcriptional activator Myb K171E, P10242” here?
Answer: -0.017 ± 0.064

Question: With “Transcriptional activator Myb K171F, P10242” as the substance, how does the abundance fitness read?
Answer: -0.638 ± 0.22

Question: For “Transcriptional activator Myb K171G, P10242”, which abundance fitness is on record?
Answer: -0.336 ± 0.061

Question: For “Transcriptional activator Myb K171H, P10242”, which abundance fitness is on record?
Answer: -0.207 ± 0.28

Question: With “Transcriptional activator Myb K171I, P10242” as the substance, how does the abundance fitness read?
Answer: -0.141 ± 0.12

Question: Which abundance fitness does the source give for “Transcriptional activator Myb K171M, P10242” here?
Answer: 0 ± 0.08

Question: For “Transcriptional activator Myb K171P, P10242”, which abundance fitness is on record?
Answer: -0.354 ± 0.14

Question: With “Transcriptional activator Myb K171Q, P10242” as the substance, how does the abundance fitness read?
Answer: -0.084 ± 0.1

Question: Which abundance fitness does the source give for “Transcriptional activator Myb K171S, P10242” here?
Answer: 0.016 ± 0.071

Question: Which abundance fitness does the source give for “Transcriptional activator Myb K171T, P10242” here?
Answer: -0.148 ± 0.2

Question: For “Transcriptional activator Myb K171V, P10242”, which abundance fitness is on record?
Answer: -0.19 ± 0.088
